From the supplement of paper PMC11246515 come the findings set out here.

This data set in a line: total protein half-life in vivo (active degradation + dilution); higher = more stable protein.
Setting [1] is: E. coli NCM3722 delta-clpP delta-lon delta-hslV, growth: N-lim chemostat, doubling time 6 h.
Where [2] appears, read: E. coli NCM3722 delta-clpP, growth: N-lim chemostat, doubling time 6 h.
The mark [3] stands for this setting: E. coli NCM3722 delta-hslV, growth: N-lim chemostat, doubling time 6 h.
The mark [4] stands for this setting: E. coli NCM3722 delta-lon, growth: N-lim chemostat, doubling time 6 h.
Setting [5] is: E. coli NCM3722 delta-smpB, growth: N-lim chemostat, doubling time 6 h.
[6] abbreviates: wild type E. coli NCM3722, growth: C-lim chemostat, doubling time 3 h.
The mark [7] stands for this setting: wild type E. coli NCM3722, growth: C-lim chemostat, doubling time 6 h.
[8] abbreviates: wild type E. coli NCM3722, growth: C-lim chemostat, doubling time 12 h.
Setting [9] is: wild type E. coli NCM3722, growth: N-lim chemostat, doubling time 6 h.
[10] abbreviates: wild type E. coli NCM3722, growth: N-lim chemostat, doubling time 12 h.
The mark [11] stands for this setting: wild type E. coli NCM3722, growth: P-lim chemostat, doubling time 6 h.
[12] abbreviates: wild type E. coli NCM3722, growth: P-lim chemostat, doubling time 12 h.

± gives the standard deviation of the averaged measurements.

“MKLVHMASGLAVAIALAACADKSADIQTPAPAANTSISATQQPAIQQPNVSGTVWIRQKVALPPDAVLTVTLSDASLADAPSKVLAQKAVRTEGKQSPFSFVLSFNPADVQPNARILLSAAITVNDKLVFITDTVQPVINQGGTKADLTLVPVQQTAVPVQASGGATTTVPSTSPTQVNPSSAVPAPTQY”: the “total protein half-life in vivo” value by setting is: under setting [1], 4.41 ± 0.88 h; under setting [2], 6.1 ± 0.34 h; under setting [3], 6.08 h; under setting [4], 6.69 ± 0.2 h; under setting [5], 5.23 ± 0.59 h; under setting [6], 3.57 ± 0.22 h. Further, the “total protein half-life in vivo” value reads like this: under setting [7], 5.53 ± 0.0062 h; under setting [8], 11.4 ± 4.4 h; under setting [9], 5.25 h; under setting [10], 9.14 ± 0.82 h; under setting [11], 5.51 ± 0.33 h; under setting [12], 11.8 ± 0.68 h.

As to “MRLPIFLDTDPGIDDAVAIAAAIFAPELDLQLMTTVAGNVSVEKTTRNALQLLHFWNAEIPLAQGAAVPLVRAPRDAASVHGESGMAGYDFVEHNRKPLGIPAFLAIRDALMRAPEPVTLVAIGPLTNIALLLSQCPECKPYIRRLVIMGGSAGRGNCTPNAEFNIAADPEAAACVFRSGIEIVMCGLDVTNQAILTPDYLSTLPQLNRTGKMLHALFSHYRSGSMQSGLRMHDLCAIAWLVRPDLFTLKPCFVAVETQGEFTSGTTVVDIDGCLGKPANVQVALDLDVKGFQQWVAEVLALAS”, the “total protein half-life in vivo” value worked out at 4.86 ± 1.4 h under setting [1]; 4.75 h under setting [2]; 4.13 h under setting [4]; 3.64 h under setting [5]; 2.8 ± 0.15 h under setting [6]; 5.62 ± 0.1 h under setting [7]. For the same sequence, the “total protein half-life in vivo” value runs as follows: under setting [8], 9.27 ± 3.1 h; under setting [9], 3.89 h; under setting [10], 11.1 h; under setting [12], 8.95 ± 3.1 h.

For the sequence “MQILKVIGLLMEYPDELLWECKEDALALIRRDAPMLTDFTHNLLNAPLLDKQAEWCEVFDRGRTTSLLLFEHVHAESRDRGQAMVDLLAEYEKVGLQLDCRELPDYLPLYLEYLSVLPDDQAKEGLLNVAPILALLGGRLKQREAPWYALFDALLQLAGSSLSSDSVTKQVNSEERDDTRQALDAVWEEEQVKFIEDNATACDSSPLNQYQRRFSQDVAPQYVDISAGGGK”, the “total protein half-life in vivo” value was determined as 3.93 ± 0.43 h under setting [1]; 1.45 h under setting [2]; 0.577 h under setting [3]; 0.917 h under setting [4]; 0.553 h under setting [5]; 1.45 ± 0.12 h under setting [7]. Also, the “total protein half-life in vivo” value was determined as 1.78 h under setting [8], 0.752 ± 0.1 h under setting [9], 0.75 h under setting [10] and 1.94 ± 0.61 h under setting [12].

Regarding “MKRPDYRTLQALDAVIRERGFERAAQKLCITQSAVSQRIKQLENMFGQPLLVRTVPPRPTEQGQKLLALLRQVELLEEEWLGDEQTGSTPLLLSLAVNADSLATWLLPALAPVLADSPIRLNLQVEDETRTQERLRRGEVVGAVSIQHQALPSCLVDKLGALDYLFVSSKPFAEKYFPNGVTRSALLKAPVVAFDHLDDMHQAFLQQNFDLPPGSVPCHIVNSSEAFVQLARQGTTCCMIPHLQIEKELASGELIDLTPGLFQRRMLYWHRFAPESRMMRKVTDALLDYGHKVLRQD [P0A8S1]”, the “total protein half-life in vivo” value runs as follows: under setting [1], 5.48 ± 0.31 h; under setting [2], 5.93 ± 1.3 h; under setting [3], 5.46 ± 0.27 h; under setting [4], 5.78 ± 0.57 h; under setting [5], 4.96 ± 0.39 h; under setting [6], 3.01 ± 0.31 h. Besides, the “total protein half-life in vivo” value is 11.6 ± 0.16 h under setting [8]; 5.84 ± 0.67 h under setting [9]; 9.72 ± 0.46 h under setting [10]; 6.03 ± 0.091 h under setting [11]; 13.4 ± 0.89 h under setting [12].

As for “MKIKNILLTLCTSLLLTNVAAHAKEVKIGMAIDDLRLERWQKDRDIFVKKAESLGAKVFVQSANGNEETQMSQIENMINRGVDVLVIIPYNGQVLSNVVKEAKQEGIKVLAYDRMINDADIDFYISFDNEKVGELQAKALVDIVPQGNYFLMGGSPVDNNAKLFRAGQMKVLKPYVDSGKIKVVGDQWVDGWLPENALKIMENALTANNNKIDAVVASNDATAGGAIQALSAQGLSGKVAISGQDADLAGIKRIAAGTQTMTVYKPITLLANTAAEIAVELGNGQEPKADTTLNNGLKDVPSRLLTPIDVNKNNIKDTVIKDGFHKESEL”, the “total protein half-life in vivo” value is 4.59 ± 0.8 h under setting [1]; 5.33 ± 0.069 h under setting [2]; 5.88 ± 0.42 h under setting [3]; 4.43 h under setting [4]; 6.1 ± 0.13 h under setting [5]; 2.99 ± 0.08 h under setting [6]. The “total protein half-life in vivo” value by setting is: under setting [7], 5.41 ± 0.45 h; under setting [8], 8.38 ± 1.2 h; under setting [9], 5.53 ± 0.86 h; under setting [10], 11.2 ± 2.2 h; under setting [11], 5.733 ± 0.025 h; under setting [12], 11.9 ± 0.15 h.

For “MKIATIKTGLASLAMLPGLVMAAPAVADKADNAFMMICTALVLFMTIPGIALFYGGLIRGKNVLSMLTQVTVTFALVCILWVVYGYSLAFGEGNNFFGNINWLMLKNIELTAVMGSIYQYIHVAFQGSFACITVGLIVGALAERIRFSAVLIFVVVWLTLSYIPIAHMVWGGGLLASHGALDFAGGTVVHINAAIAGLVGAYLIGKRVGFGKEAFKPHNLPMVFTGTAILYIGWFGFNAGSAGTANEIAALAFVNTVVATAAAILGWIFGEWALRGKPSLLGACSGAIAGLVGVTPACGYIGVGGALIIGVVAGLAGLWGVTMLKRLLRVDDPCDVFGVHGVCGIVGCIMTGIFAASSLGGVGFAEGVTMGHQLLVQLESIAITIVWSGVVAFIGYKLADLTVGLRVPEEQEREGLDVNSHGENAYNA”, the “total protein half-life in vivo” value by setting is: under setting [1], 5.75 ± 1.4 h; under setting [2], 4.24 ± 0.22 h; under setting [3], 5.51 ± 1.2 h; under setting [4], 5.81 ± 2 h; under setting [5], 4.6 ± 0.47 h; under setting [9], 4.78 ± 0.62 h. In addition, the “total protein half-life in vivo” value under setting [10] amounted to 8.59 ± 0.8 h.

With “MKELVVVAIGGNSIIKDNASQSIEHQAEAVKAVADTVLEMLASDYDIVLTHGNGPQVGLDLRRAEIAHKREGLPLTPLANCVADTQGGIGYLIQQALNNRLARHGEKKAVTVVTQVEVDKNDPGFAHPTKPIGAFFSDSQRDELQKANPDWCFVEDAGRGYRRVVASPEPKRIVEAPAIKALIQQGFVVIGAGGGGIPVVRTDAGDYQSVDAVIDKDLSTALLAREIHADILVITTGVEKVCIHFGKPQQQALDRVDIATMTRYMQEGHFPPGSMLPKIIASLTFLEQGGKEVIITTPECLPAALRGETGTHIIKT”, the “total protein half-life in vivo” value under setting [6] was determined as 2.78 ± 1.3 h and the “total protein half-life in vivo” value under setting [7] came out at 5.03 h.
